Reference: patent US20250277030A1 (Zymeworks, published 2025)
Numbering of substitutions follows the chain as printed.

T1: human sodium-dependent phosphate transporter 2B (NaPi2b) (human, UniProt O95436 1-690)
T1 construct: UniProt ID is given as 095436 [sic]; also called hNaPi2b; Hu NaPi2b
T1 sequence: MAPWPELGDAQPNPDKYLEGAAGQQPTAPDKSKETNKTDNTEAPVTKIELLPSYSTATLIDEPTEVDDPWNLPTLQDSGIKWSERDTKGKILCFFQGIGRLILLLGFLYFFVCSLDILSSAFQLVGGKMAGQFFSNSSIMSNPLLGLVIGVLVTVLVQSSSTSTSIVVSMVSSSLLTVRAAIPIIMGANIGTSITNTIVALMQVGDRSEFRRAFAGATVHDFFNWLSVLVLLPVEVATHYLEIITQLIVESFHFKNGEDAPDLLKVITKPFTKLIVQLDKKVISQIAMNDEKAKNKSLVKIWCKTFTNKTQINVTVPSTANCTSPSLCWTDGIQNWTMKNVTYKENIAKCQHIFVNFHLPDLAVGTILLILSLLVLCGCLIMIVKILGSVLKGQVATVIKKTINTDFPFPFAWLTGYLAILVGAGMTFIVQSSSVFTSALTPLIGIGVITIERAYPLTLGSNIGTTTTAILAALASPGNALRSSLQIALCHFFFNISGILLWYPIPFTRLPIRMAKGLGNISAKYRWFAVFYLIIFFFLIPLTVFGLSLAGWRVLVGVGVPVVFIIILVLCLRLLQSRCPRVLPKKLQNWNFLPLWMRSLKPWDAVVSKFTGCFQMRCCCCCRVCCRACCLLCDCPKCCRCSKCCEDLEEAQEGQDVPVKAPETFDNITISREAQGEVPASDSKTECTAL

B1: v29455 humanized anti-NaPi2b antibody (H2L2) (antibody, human IgG1, kappa, V domains shown)
VH: QVQLVQSGAEVKKPGASVKVSCKASGFTFTSYNVHWVRQAPGQGLEWIAAISPGNGDLSYAQKFQGRVTMTVDTSTSTVYMELSSLRSEDTAVYYCARGRTGMGAVDYWGQGTLVTVSS
VL: DVQMTQSPSSLSASVGDRVTITCRASQDVYSYLNWYQQKPGKAVKLLIYYTSRLQSGVPSRFSGSGSGTDYTLTISSLQPEDFATYYCQQYNIFPWTFGQGTKLEIKR
B2: v29460 humanized anti-NaPi2b antibody (H1L1) (antibody, human IgG1, kappa, V domains shown)
VH: B1 VH with I48M, A49G, V72R
VL: B1 VL with V2I, V44P, Y71F
B3: v29457 humanized anti-NaPi2b antibody (H4L1) (antibody, human IgG1, kappa, V domains shown)
VH: B1 VH with V20M, V68A, M70L, T74R, V79A
VL: B1 VL with V2I, V44P, Y71F
B4: v29449 humanized anti-NaPi2b antibody (H4L3) (antibody, human IgG1, kappa, V domains shown)
VH: B1 VH with V20M, V68A, M70L, T74R, V79A
VL: B1 VL with F83I
notes: Full-size IgG1/kappa
B5: v29454 humanized anti-NaPi2b antibody (H3L2) (antibody, human IgG1, kappa, V domains shown)
VH: B1 VH with V20M, V68A, M70L, V79A
VL: B1 VL
B6: v29459 humanized anti-NaPi2b antibody (H2L1) (antibody, human IgG1, kappa, V domains shown)
VH: B1 VH
VL: B1 VL with V2I, V44P, Y71F
B7: v29450 humanized anti-NaPi2b antibody (H3L3) (antibody, human IgG1, kappa, V domains shown)
VH: B1 VH with V20M, V68A, M70L, V79A
VL: B1 VL with F83I
B8: v29458 humanized anti-NaPi2b antibody (H3L1) (antibody, human IgG1, kappa, V domains shown)
VH: B1 VH with V20M, V68A, M70L, V79A
VL: B1 VL with V2I, V44P, Y71F
B9: v29451 humanized anti-NaPi2b antibody (H2L3) (antibody, human IgG1, kappa, V domains shown)
VH: B1 VH
VL: B1 VL with F83I
B10: v29453 humanized anti-NaPi2b antibody (H4L2) (antibody, human IgG1, kappa, V domains shown)
VH: B1 VH with V20M, V68A, M70L, T74R, V79A
VL: B1 VL
B11: v18993-DL2, lifastuzumab conjugated to MT-VC-Compound 1 (DAR 4) (antibody, human IgG1, kappa)
heavy 1: GEVQLVESGGGLVQPGGSLRLSCAASGFSFSDFAMSWVRQAPGKGLEWVATIGRVAFHTYYPDSMKGRFTISRDNSKNTLYLQMNSLRAEDTAVYYCARHRGFDVGHFDFWGQGTLVTVSSASTKGPSVFPLAPSSKSTSGGTAALGCLVKDYFPEPVTVSWNSGALTSGVHTFPAVLQSSGLYSLSSVVTVPSSSLGTQTYICNVNHKPSNTKVDKKVEPKSCDKTHTCPPCPAPELLGGPSVFLFPPKPKDTLMISRTPEVTCVVVDVSHEDPEVKFNWYVDGVEVHNAKTKPREEQYNSTYRVVSVLTVLHQDWLNGKEYKCKVSNKALPAPIEKTISKAKGQPREPQVYVYPPSRDELTKNQVSLTCLVKGFYPSDIAVEWESNGQPENNYKTTPPVLDSDGSFALVSKLTVDKSRWQQGNVFSCSVMHEALHNHYTQKSLSLSPG
heavy 2: not shown
light: GDIQMTQSPSSLSASVGDRVTITCRSSETLVHSSGNTYLEWYQQKPGKAPKLLIYRVSNRFSGVPSRFSGSGSGTDFTLTISSLQPEDFATYYCFQGSFNPLTFGQGTKVEIKRTVAAPSVFIFPPSDEQLKSGTASVVCLLNNFYPREAKVQWKVDNALQSGNSQESVTEQDSKDSTYSLSSTLTLSKADYEKHKVYACEVTHQGLSSPVTKSFNRGEC
modifications: MT-VC-Compound 1 (DL2) on cysteines freed by reduction; positions not given; MT-VC-Compound 1 (DL2) on cysteines freed by reduction; positions not given; DAR 4 for the whole antibody
notes: also called Lifa Compound 1 ADC; lifastuzumab-DL2 ADC
B12: v23855-DL3, v23855 conjugated to MC-VC-PABC-MMAE (DAR 4) (antibody, human IgG1, kappa, V domains shown)
VH: QAYLQQSGAELVRPGASVKMSCKASGFTFTSYNVHWVKQTPRQGLEWIAAISPGNGDLSYNQRFKDKATLTVDRSSSTAYMQLSGLTSEDSAVYFCARGRTGMGAVDYWGQGTSVTVSS
VL: DVQMTQTASSLSASLGDRVTISCRASQDVYSYLNWYQQKPHGTVKLLIYYTSRLQSGVPSRFTGSGSGTDYSLTISNLEPEDIATYYCQQYNIFPWTFGGGTKLEIKR
modifications: MC-VC-PABC-MMAE (DL3) on cysteines freed by reduction; positions not given; MC-VC-PABC-MMAE (DL3) on cysteines freed by reduction; positions not given; DAR 4 for the whole antibody
B13: v18992-DL1, MX35 conjugated to MC-GGFG-AM-DXd1 (DAR 8) (antibody, human IgG1, kappa)
heavy 1: GQVQLVQSGAEVVKPGASVKMSCKASGYTFTGYNIHWVKQAPGQGLEWIGAIYPGNGDTSYKQKFRGRATLTADTSTSTVYMELSSLRSEDSAVYYCARGETARATFAYWGQGTLVTVSSASTKGPSVFPLAPSSKSTSGGTAALGCLVKDYFPEPVTVSWNSGALTSGVHTFPAVLQSSGLYSLSSVVTVPSSSLGTQTYICNVNHKPSNTKVDKKVEPKSCDKTHTCPPCPAPELLGGPSVFLFPPKPKDTLMISRTPEVTCVVVDVSHEDPEVKFNWYVDGVEVHNAKTKPREEQYNSTYRVVSVLTVLHQDWLNGKEYKCKVSNKALPAPIEKTISKAKGQPREPQVYVYPPSRDELTKNQVSLTCLVKGFYPSDIAVEWESNGQPENNYKTTPPVLDSDGSFALVSKLTVDKSRWQQGNVFSCSVMHEALHNHYTQKSLSLSPG
heavy 2: not shown
light: GDIQMTQSPSSLSASVGDRVTITCSASQDIGNFLNWYQQKPGKTVKVLIYYTSSLYSGVPSRFSGSGSGTDYTLTISSLQPEDFATYYCQQYSKLPLTFGQGTKLELKRTVAAPSVFIFPPSDEQLKSGTASVVCLLNNFYPREAKVQWKVDNALQSGNSQESVTEQDSKDSTYSLSSTLTLSKADYEKHKVYACEVTHQGLSSPVTKSFNRGEC
modifications: MC-GGFG-AM-DXd1 (DL1) on cysteines freed by reduction; positions not given; MC-GGFG-AM-DXd1 (DL1) on cysteines freed by reduction; positions not given; DAR 8 for the whole antibody
B14: v18993-DL1, lifastuzumab conjugated to MC-GGFG-AM-DXd1 (DAR 8) (antibody, human IgG1, kappa)
heavy 1: B11 heavy 1
heavy 2: not shown
light: B11 light
modifications: MC-GGFG-AM-DXd1 (DL1) on cysteines freed by reduction; positions not given; MC-GGFG-AM-DXd1 (DL1) on cysteines freed by reduction; positions not given; DAR 8 for the whole antibody

Target: T1, human sodium-dependent phosphate …
Assay: flow cytometry, IGROV-1 cells (endogenous NaPi2b), 24 h at 4 °C; apparent Kd
Procedure: (§1) IGROV-1 cells express endogenous NaPi2b at a high level.
(§2) Briefly, cells were seeded at 50,000 cells/well in conical-bottom 96-well plates and treated with test antibody for 24 hours at 4° C. to prevent internalization. […] Following incubation, cells were washed and stained with anti-Human IgG Fc AF647 conjugate (Jackson Immuno Research Labs, West Grove, PA; Cat. No. 109-605-098) at 4° C. for 30 min. Following incubation and washing, fluorescence was detected by flow cytometry on a BD LSRFortessa™ Cell Analyzer (BD Biosciences, Franklin Lake, NJ) with 1,000 minimum events collected per well. The AF647/APC-A GeoMean (fluorescence signal geometric mean, proportional to anti-Human AF647 binding) was calculated for the live cell population using FlowJo™ Version 10.8.1 (BD Biosciences, Franklin Lake, NJ) and plotted for each test antibody using GraphPad Prism Version 9 (GraphPad Software, San Diego, CA).

Kd [nM]	Binder
1.18	B1
1.67	B2
1.73	B3
0.79	B4
0.92	B5
1.61	B6
0.96	B7
1.39	B8
1.49	B9
0.82	B10
3	B11

Target: T1, human sodium-dependent phosphate …
Assay: flow cytometry, IGROV-1 cells (endogenous NaPi2b), 24 h at 4 °C
Procedure: as §1, §2

Bmax (MFI)	Binder
41900	B1
40100	B2
44500	B3
44500	B4
42300	B5
40900	B6
43800	B7
40800	B8
46200	B9
44500	B10
39800	B11

Target: T1, human sodium-dependent phosphate …
Assay: cell-based or functional assay

Binder	In vitro cytotoxicity EC50 (nM), HCC-78 [nM]	In vitro cytotoxicity EC50 (nM), IGROV-1 [nM]	In vitro cytotoxicity EC50 (nM), OVCAR-3 [nM]
B12	0.2	0.18	0.05
B13	0.68	1.04	
B11	1.77	2.12	0.49
B14	5.45	3.45	
